“Also recorded” adds a separate entry of the source.
Legend:
[1] = system: Z-DNA and B-DNA in the NTHI biofilm extracellular matrix; experiment: Immunofluorescence CLSM for Z-DNA / B-DNA in NTHI biofilms; format: cell-based, Non-typeable Haemophilus influenzae; settings: DNase (Pulmozyme; 5 units) at 24 h, read at 40 h
Description: FIG. 31: DNase degrades B-DNA, but not Z-DNA, within the biofilm extracellular matrix. DNase (Pulmozyme; 5 units) was added at 24 h after biofilm seeding to in vitro pre-formed NTHI biofilms.
FIG. 37: HMGB1 destabilizes Z-DNA structures in the biofilm extracellular matrix. Non-typeable Haemophilus influenzae biofilms were grown in supplemented BHI media in 8 well chambered coverglass slides at 37° C. and 5% CO2. After 24 h, biofilms were treated as indicated above. After 40 h, biofilms were washed, probed with primary antibodies directed against Z-DNA (light gray dots), a fluorescent secondary antibody, stained with DAPI (gray regions), and visualized via fluorescence microscopy.
FIGS. 50A-50B: Equilibrium shift of B-DNA to Z-DNA conversion alters biofilm formation. NTHI biofilms formed for 24 h were incubated with cerium chloride (CeCl3) or chloroquine for an additional 16 h and were probed with naive or anti-Z-DNA (white) by immunofluorescence CLSM.
FIGS. 51A-51B: Equilibrium shift of B-DNA to Z-DNA conversion alters biofilm formation. NTHI biofilms formed for 24 h were incubated with cerium chloride (CeCl3) (FIG. 51A) or chloroquine (FIG. 51B) for an additional 16 h. Z-DNA was measured by IF and CLSM using anti-Z-DNA and cells were stained with the membrane stain FM4-64. Bars represent the SEM. Statistical significance compared to control was assessed by paired t-tests, *P<0.05, **P<0.01.

[2] = system: Biofilms formed for 24 h by the indicated bacteria (Kp=K. pneumoniae); experiment: B-DNA / Z-DNA abundance after DNase in 24 h biofilms of the indicated bacteria (ImageJ fluorescence ratio); format: cell-based; settings: Pulmozyme 40 U/ml for 16 h
Description: FIGS. 48A-48B: Z-DNA in biofilms forms a nuclease-resistant scaffold. (FIG. 48A) Biofilms formed for 24 h by the indicated bacteria (Kp=K. pneumoniae) were incubated with DNase (Pulmozyme®; 40 U/ml) for an additional 16 h. Biofilms were then probed with anti-B-DNA (dark gray) and anti-Z-DNA (white) antibodies and counterstained with the bacterial cell membrane stain FM4-64™ (not shown). (FIG. 48B) Changes in abundance of B-DNA or Z-DNA were quantified using ImageJ by calculation of the ratio of fluorescence intensity of B-DNA or Z-DNA after DNase addition divided by the fluorescence intensity in the absence of DNase (Control). Fluorescence intensity was normalized to the fluorescence signal of FM4-64™-stained cells. Bars represent the SEM. Statistical significance compared to Control (no DNase, dotted line) was assessed by paired t-tests, *P<0.05; ****P<0.0001.

[3] = target: T1, DNABII-polyamine dependent DNA structures (Haemophilus influenzae, UniProt P43722); experiment: EPS scaffold mimetic (gDNA + HU + spermidine) structures, CLSM; format: biochemical; settings: gDNA 2 μg/ml + HU + spermidine; Pulmozyme treatment
T1 sequence (P43722 whole entry, looked up): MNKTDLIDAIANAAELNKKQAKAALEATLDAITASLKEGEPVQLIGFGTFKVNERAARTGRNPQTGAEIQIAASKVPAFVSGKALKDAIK
Description: FIGS. 4A-4B: Anti-DNABII disrupts DNABII-polyamine (PA) dependent structures. (FIG. 4A) DNA structures were formed by incubating spermidine (300 μM) and HU (1 μM) in buffer that contained genomic DNA (gDNA; 2 μg/ml) for 40 h. Immunofluorescence CLSM images of DNABII-polyamine dependent DNA structures. Probed for DNABII proteins (white; indicated on the right side of the image) and counterstained with DAPI (white; indicated on the left side of the image). DNABII polyamine dependent DNA structures incorporate DNABII proteins. (FIG. 4B) EPS structures were formed as in (FIG. 4A) for 24 h and treated for additional 16 h with 1:50 dilution of DNABII antiserum (indicated below the image). Fluorescence CLSM images stained with DAPI (white). DNABII-polyamine dependent DNA structures require DNABII proteins.
FIG. 45: Polyamines and DNABII proteins stimulate Z-DNA, which is DNAse resistant. Immunofluorescence images of EPS scaffold mimetic formed de novo by addition of DNABII protein (HUNTHI, 500 nM) and spermidine (300 μM) to purified genomic DNA (2 μg/ml) and incubation at 37° C. for 16 h. […]
Applicants hypothesized that DNABII and polyamines interact with eDNA synergistically to confer DNase resistance to mature biofilms. […] Degradation was assessed by agarose gel electrophoresis and UV illumination. […]

genomic DNA = experiment: Spermidine sensitivity of nucleases on genomic DNA; format: biochemical; settings: Spermidine titrated from 10 μM-10 mM

B1: DNase: Pulmozyme, a recombinant human DNase used for management of cystic fibrosis patients (protein, UniProt P24855 23-282, looked up)
Deoxyribonuclease-1: LKIAAFNIQTFGETKMSNATLVSYIVQILSRYDIALVQEVRDSHLTAVGKLLDNLNQDAPDTYHYVVSEPLGRNSYKERYLFVYRPDQVSAVDSYYYDDGCEPCGNDTFNREPAIVRFFSRFTEVREFAIVPLHAAPGDAVAEIDALYDVYLDVQEKWGLEDVMLMGDFNAGCSYVRPSQWSSIRLWTSPTFQWLIPDSADTTATPTHCAYDRIVVAGMLLRGAVVPDSALPFNFQAAYGLSDQLAQAISDHYPVEVMLK
B-DNA form eDNA in NTHI biofilm matrix [1]: degrades B-DNA form eDNA structures | Z-DNA form eDNA in NTHI biofilm matrix [1]: reveals extensive Z-DNA form eDNA | B-DNA abundance after DNase [2]: B-DNA is degraded | Z-DNA abundance after DNase [2]: Z-DNA is resistant | effect of DNase on EPS scaffold mimetic structures [3]: DNA structures were resistant to DNase; also recorded: selectively eliminated B-DNA whereas Z-DNA remained intact | Spd inhibition: spermidine concentration where nuclease was reduced to <10% activity on genomic DNA (genomic DNA): 300 µM
